Data from patent US9096835B2, “DNA polymerase” (Medical Research Council, priority 2003, dated 2015).
Several values for one entry are separate records, joined by “and”; a condition that tells them apart may be missing. Equal values may be shown once.

How the values were obtained:
Format in all cases: biochemical
[1] = tested on: primer-template duplex with matched or mismatched 3′ terminus; test: Steady-state extension kinetics, gel-based assay; details: incorporated base is dCTP
Procedure: (§1) Kinetic parameters were determined using a gel-based assay essentially as described (16). Primers 15, 16, 17 (3′ base=G, C, A respectively) were ^32P-labeled and annealed to one of template strands 18, 19, 20 (template base=C, G, A respectively) or 21 (template base C different context). Duplex substrates were used at 50 nM final concentration in 1× Taq buffer with various concentrations of enzyme and dNTP. Reactions were carried out at 60° C. for times whereby <20% of primer-template was utilized at the highest concentration of dNTP.
(§2) Extension and incorporation kinetics of M1 and M4 for a selection of mismatches were measured using a gel-based steady-state kinetic assay (Goodman) (Tables 1 & 2). M1 and M4 respectively extend a C•C mispair 390 and 75-fold more efficiently than wtTaq. […] The gain in extension efficiency derives predominantly from increased relative Vmax values for the mutant polymerases, while Km for nucleotide substrates remains largely unchanged. For most DNA polymerases the relative efficiency of extending a given mispair (f0ext) is similar to the relative efficiency of forming it (finc) (Goodman 1993, Goodman 1990, Washington 2001). Indeed, M1 and M4 respectively incorporate dCTP opposite template base C 206- and 29-fold more efficiently than wtTaq (Table 2).

[2] = tested on: primer-template duplex, correct or incorrect incoming dNTP; test: Steady-state single nucleotide incorporation kinetics, gel-based assay
Procedure: as §1, §2

undamaged template = test: Translesion replication assay, control; details: gel-extension assay, 60° C.
Procedure: Template primers 22 (undamaged) or 23 (containing a synthetic abasic site) were synthesized by Lofstrand Laboratories (Gaithersburg, Md.). Template primer 24 (containing a single cis-syn thymine dimer), was synthesized as described (34). Primer 25 was ^32P-labeled and annealed to one of the three templates 22, 23, 24 (at a primer template ratio of molar 1:1.5) and extended in 40 mM Tris.HCl at pH 8.0, 5 mM MgCl2, 100 μM of each dNTP, 10 mM DTT, 250 μg/ml BSA, 2.5% glycerol, 10 nM primer-template DNA and 0.1 Unit of polymerase at 60° C. for various times.

[3] = tested on: template containing an abasic site; test: Translesion replication assay (primer extension), abasic site; details: gel-extension assay, 60° C.
In short: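 A 5′-^32P-labelled 20mer primer was annealed (1:1.5) to 51mer templates bearing an abasic site or a cis-syn thymine dimer, 10 nM in final reactions. Extension ran in 40 mM Tris·HCl pH 8.0, 5 mM MgCl2, 100 μM each dNTP, 0.1 U polymerase at 60 °C for various times. Products were resolved on 20% urea-PAGE and imaged by PhosphorImager.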

[4] = 3′-terminal base pair C · G (template base: 3′ primer base), matched

Ratio of fext, fext (mutant polymerase)/fext (wtTaq) ([1]; 3′-terminal base pair A · A): 5.7
Ratio of fext, fext (mutant polymerase)/fext (wtTaq) ([1]; 3′-terminal base pair A · G): 7.0
Ratio of fext, fext (mutant polymerase)/fext (wtTaq) ([1]; 3′-terminal base pair C · C): 75 and 75.3
Ratio of fext, fext (mutant polymerase)/fext (wtTaq) ([1]; 3′-terminal base pair G · A): 7.0
Ratio of fext, fext (mutant polymerase)/fext (wtTaq) ([1]; 3′-terminal base pair G · G): 7.6
Ratio of finc, finc (mutant polymerase)/finc (wtTaq) ([2]; base pair C: dCTP): 29 and 29.22
Ratio of finc, finc (mutant polymerase)/finc (wtTaq) ([2]; base pair G: dATP): 2.18
Ratio of finc, finc (mutant polymerase)/finc (wtTaq) ([2]; base pair G: dGTP): 68.82
Ratio of finc, finc (mutant polymerase)/finc (wtTaq) ([2]; base pair G: dTTP): 1.1
B1: M4: Taq mutant D58G, R74P, A109T, L245R, R343G, G370D, E520G, N583S, E694K, A743P; SEQ ID NO 2 (protein)
chain: MRGMLPLYEPKGRVLLVDGHHLAYRTFHALKGLTTSRGEPVQAVYGFAKSLLKALKEGGDAVIVVFDAKAPSFPHEAYGGYKAGRAPTPEDFPRQLALIKELVDLLGLTRLEVPGYEADDVLASLAKKAEKEGYEVRILTADKDLYQLLSDRIHVLHPEGYLITPAWLWEKYGLRPDQWADYRALTGDESDNLPGVKGIGEKTARKLLEEWGSLEALLKNLDRLKPAIREKILAHMDDLKLSWDRAKVRTDLPLEVDFAKRREPDRERLRAFLERLEFGSLLHEFGLLESPKALEEAPWPPPEGAFVGFVLSRKEPMWADLLALAAARGGRVHRAPEPYKALGDLKEARGLLAKDLSVLALREGLGLPPDDDPMLLAYLLDPSNTTPEGVARRYGGEWTEEAGERAALSERLFANLWGRLEGEERLLWLYREVERPLSAVLAHMEATGVRLDVAYLRALSLEVAEEIARLEAEVFRLAGHPFNLNSRDQLERVLFDELGLPAIGKTEKTGKRSTSAAVLGALREAHPIVEKILQYRELTKLKSTYIDPLPDLIHPRTGRLHTRFNQTATATGRLSSSDPNLQSIPVRTPLGQRIRRAFIAEEGWLLVALDYSQIELRVLAHLSGDENLIRVFQEGRDIHTETASWMFGVPREAVDPLMRRAAKTINFGVLYGMSAHRLSQELAIPYEEAQAFIKRYFQSFPKVRAWIEKTLEEGRRRGYVETLFGRRRYVPDLEARVKSVREPAERMAFNMPVQGTAADLMKLAMVKLFPRLEEMGARMLLQVHDELVLEAPKERAEAVARLAKEVMEGVYPLAVPLEVEVGIGEDWLSAKE
modifications: Mutant Thermus aquaticus DNA polymerase
Vmax ([1]; 3′-terminal base pair A · A (template base: 3′ primer base)): 8.5 % Min^−1
Km ([1]; 3′-terminal base pair A · A): 32.9 µM
fext, f (mismatched 3′terminus)/f (matched terminus) ([1]; 3′-terminal base pair A · A): 3.8 × 10^−6
Vmax ([1]; 3′-terminal base pair A · G (template base: 3′ primer base)): 50.0 % Min^−1
Km ([1]; 3′-terminal base pair A · G): 259 µM
fext, f (mismatched 3′terminus)/f (matched terminus) ([1]; 3′-terminal base pair A · G): 1.5 × 10^−6
Vmax ([1]; 3′-terminal base pair C · C (template base: 3′ primer base)): 11.1 % Min^−1
Km ([1]; 3′-terminal base pair C · C): 36.6 µM
fext, f (mismatched 3′terminus)/f (matched terminus) ([1]; 3′-terminal base pair C · C): 4.5 × 10^−6
Km [1, 4]: 0.012 µM
Vmax [1, 4]: 817.0 % Min^−1
Vmax ([1]; 3′-terminal base pair G · A (template base: 3′ primer base)): 7.5 % Min^−1
Km ([1]; 3′-terminal base pair G · A): 29 µM
fext, f (mismatched 3′terminus)/f (matched terminus) ([1]; 3′-terminal base pair G · A): 3.8 × 10^−6
Vmax ([1]; 3′-terminal base pair G · G (template base: 3′ primer base)): 70.6 % Min^−1
Km ([1]; 3′-terminal base pair G · G): 107 µM
fext, f (mismatched 3′terminus)/f (matched terminus) ([1]; 3′-terminal base pair G · G): 9.7 × 10^−6
Km ([2]; base pair C: dCTP): 1390 µM
finc, f (incorrect dNTP)/f (correct dNTP) ([2]; base pair C: dCTP): 1.13 × 10^−6
Vmax ([2]; base pair C: dCTP (template base: incoming nucleotide)): 52.63 % Min^−1
Vmax ([2]; base pair C: dGTP (template base: incoming nucleotide), correct dNTP): 335.42 % Min^−1
Km ([2]; base pair C: dGTP, correct dNTP): 0.01 µM
Km ([2]; base pair G: dATP): 158 µM
finc, f (incorrect dNTP)/f (correct dNTP) ([2]; base pair G: dATP): 1.80 × 10^−4
Vmax ([2]; base pair G: dATP (template base: incoming nucleotide)): 1935.48 % Min^−1
Vmax ([2]; base pair G: dCTP (template base: incoming nucleotide), correct dNTP): 817 % Min^−1
Km ([2]; base pair G: dCTP, correct dNTP): 0.012 µM
Km ([2]; base pair G: dGTP): 82.3 µM
finc, f (incorrect dNTP)/f (correct dNTP) ([2]; base pair G: dGTP): 1.17 × 10^−4
Vmax ([2]; base pair G: dGTP (template base: incoming nucleotide)): 656.46 % Min^−1
Km ([2]; base pair G: dTTP): 5.1 µM
finc, f (incorrect dNTP)/f (correct dNTP) ([2]; base pair G: dTTP): 1.82 × 10^−4
Vmax ([2]; base pair G: dTTP (template base: incoming nucleotide)): 63.20 % Min^−1
primer extension on undamaged template (undamaged template): efficiently and rapidly extended primers to the end of the template
abasic site bypass in primer extension [3]: able to extend past the lesion and to the end of the template
